This passage reports Km, kcat and kcat/Km results from PMC9606172, “Recombinant acetylxylan esterase of Halalkalibacterium halodurans NAH-Egypt: molecular and biochemical study” (AMB Express, 2022).

As usually defined, the Km is the substrate concentration at which the rate is half of its maximum. The kcat is the number of substrate molecules converted per active site and unit of time at saturation. Usually kcat/Km stands for the second-order rate constant that governs catalysis at low substrate concentration.

Substrate in this data set: CC(=O)Oc1ccc([N+](=O)[O-])cc1
In words: purified protein. As to conditions: 30 mM Tris-HCl pH 8.0 (general assay), temperature for the Km not given. It counts as biochemical, Halalkalibacterium halodurans.

B1: AXE-HAS10 (Halalkalibacterium halodurans C-125) (protein)
chain: MPLIDMPLTELKEYMGRNPKPDDFTEYWDRALQEMRKVNPNVELIPSDFQTTYAECFHLYFTGVRGARIHAKYVRPRHTSGTHPAVIHFHGYTMNAGEWTGLLHYAALGYSVLAMDVRGQGGLSEDTGGVKGNTHSGHIIRGLDDNADQLLFRHVFLDTAQLANIVMNLPEVDEERVAVTGWSQGGALAIACAALEPKIKKVAPVYPFLSDYQRVWEMDLAEKAYDELQTYFRRFDPQHRREAEIFTKLGYIDIQHLAPLVKGEVLLAVGLMDTVCPPSTQFAMYNKLTTTKSIELYPDFAHEDLPGHRDRIFQFLSDL
notes: full-length ORF, 319 residues, no signal peptide; pET-28a(+) His6 fusion, 33 extra residues N-terminal and 9 C-terminal; E. coli BL21 (DE3) Rosetta; EC 3.1.1.72, CE7
B1: the Km is 96 µM, the kcat was found to be 63.1 s⁻¹ and the kcat/Km turned out to be 657000 M⁻¹ s⁻¹.
